Measured values reported in article PMC1874666 (Nucleic Acids Research, 2007).

Target: the molecule itself
Experiment: AUC

B1: Helicobacter pylori neutrophil-activating protein (HP-NAP) (natural protein, UniProt P43313 1-144, looked up)
chain: MKTFEILKHLQADAIVLFMKVHNFHWNVKGTDFFNVHKATEEIYEEFADMFDDLAERIVQLGHHPLVTLSEAIKLTRVKEETKTSFHSKDIFKEILEDYKYLEKEFKELSNTAEKEGDKVTVTYADDQLAKLQKSIWMLQAHLA
B1 was tested, and the “stoichiometry N” value was 12.
